Data reported in US20260042827A1 (UNIVERSITY HEALTH NETWORK, published 2026).

Assays:
HLA-DP2 = biological target: T1, HLA-DP2 (human, UniProt P20036 29-222; P04440 30-225, limits assumed); experiment: cell-based competitive binding assay on T2/DP2 cells, reference peptide Oxy271-287
T1 construct: whole, on cells; also called T2 cells transduced with DP2
T1 MHC II alpha: not shown
T1 MHC II beta: not shown

HLA-DP4 [1] = biological target: T2, HLA-DP4 (human, UniProt P20036 29-222; P04440 30-225, limits assumed); experiment: cell-based competitive binding assay on T2/DP4 cells, reference peptide Oxy271-287
T2 construct: whole, on cells; also called T2/DP4

[2] = biological target: T3, WT1330-348 presented by DP2 on K562 cells (human, UniProt P20036 29-260; P04440 30-258); experiment: flow cytometry on peptide-pulsed K562 transfectants, PE anti-mouse secondary
T3 construct: whole, on cells; Exogenously pulsed peptide
T3 MHC II alpha: not shown
T3 MHC II beta: not shown
T3 peptide: CNKRYFKLSHLQMHSRKHT

[3] = biological target: T4, WT1330-348 presented by DP4 on K562 cells (human, UniProt P20036 29-260; P04440 30-258); experiment: as above
T4 construct: whole, on cells; Exogenously pulsed peptide

[4] = biological target: T5, WT1330-348 presented by DP5 on K562 cells (human, UniProt P20036 29-260; P04440 30-258); experiment: as above
T5 construct: whole, on cells; Exogenously pulsed peptide
T5 MHC II alpha: not shown
T5 MHC II beta: not shown
T5 peptide: CNKRYFKLSHLQMHSRKHT

WT1330-348 = biological target: T6, WT1330-348; experiment: biolayer interferometry (Octet Red96), biotinylated peptide on streptavidin tips, 5H2 in solution, steady state fit with 1:1 model
T6 construct: also called WT1 peptide
T6 peptide: CNKRYFKLSHLQMHSRKHT

HLA-DP4 [5] = biological target: T2, HLA-DP4; experiment: cell-based competitive binding assay on T2/DP4 cells, graded WT1328-348 against reference peptide Oxy271-287

T2 sequence (P20036 29-222 limits assumed, chain 1 of 4, other chains not shown): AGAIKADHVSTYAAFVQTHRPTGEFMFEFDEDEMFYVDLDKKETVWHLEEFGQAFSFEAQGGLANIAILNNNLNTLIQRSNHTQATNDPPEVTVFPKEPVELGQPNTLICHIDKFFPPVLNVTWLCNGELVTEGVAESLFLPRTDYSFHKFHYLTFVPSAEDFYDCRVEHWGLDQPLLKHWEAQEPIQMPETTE
T2 sequence (P04440 30-225 limits assumed, chain 2 of 4, other chains not shown): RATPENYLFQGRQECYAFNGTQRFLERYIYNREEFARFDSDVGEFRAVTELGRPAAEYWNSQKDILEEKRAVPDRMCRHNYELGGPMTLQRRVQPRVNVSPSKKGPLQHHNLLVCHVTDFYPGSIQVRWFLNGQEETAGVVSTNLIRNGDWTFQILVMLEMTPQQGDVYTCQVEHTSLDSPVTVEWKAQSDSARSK

B1: WT1235-243 (peptide)
peptide: CMTWNQMNL
notes: Negative control peptide; also called HLA-A2 restricted peptide
binding result (HLA-DP2): no binding (tested: any tested concentration) | binding result (HLA-DP4 [1]): no binding (tested: any tested concentration)

B2: WT1-specific mAb, 5H2 (antibody, V domains shown)
VH: EVQLQQSGAELVRPGALVKLSCKASGFNIKDYYMHWVKQRPEQGLEWIGWIDPENGNTIYDPKFQGKASITADTSSNTAYLQLSSLTSGDTAVYYCTRDGYYMVFAYWGQGTLVTVSA
VL: DIQMTQSPSSLSASLGGKVTITCKASQDINKCIAWYKHKPGKGPRLLIHYTSILQPGIPSRFSGSGSGRDYSFSISNLEPEDIATYYCLQYDNLYTFGGGTKLEIK
notes: also called clone 5H2; 5H2 mAb
binding result [2]: binds | binding result [3]: binds | binding result [4]: binds | Kd (WT1330-348): ~50 nM

B3: WT1328-348 (peptide)
peptide: PGCNKRYFKLSHLQMHSRKHT
notes: also called 21-mer peptide
binding result (HLA-DP4 [5]): binds
